Source: patent publication US20250049852A1 (SHANGHAI IASO BIOTECHNOLOGY, published 2025)

T1: Biotinylated Recombinant human BAFFR Protein (human, UniProt Q96RJ3 7-71, limits assumed, biotinylated)
T1 construct: The label says that it carries a his tag; also called BAFFR-his-Bio
T1 sequence (looked up): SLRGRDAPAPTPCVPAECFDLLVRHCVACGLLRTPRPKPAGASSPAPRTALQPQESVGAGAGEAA

T2: murine-derived GPRC5D overexpressed on CHOS cells (CHOS-mouseGPRC5D) (mouse (murine-derived), UniProt Q9JIL6 1-344)
T2 construct: whole, on cells; also called GPRC5D murine-derived positive cell line
T2 sequence (looked up): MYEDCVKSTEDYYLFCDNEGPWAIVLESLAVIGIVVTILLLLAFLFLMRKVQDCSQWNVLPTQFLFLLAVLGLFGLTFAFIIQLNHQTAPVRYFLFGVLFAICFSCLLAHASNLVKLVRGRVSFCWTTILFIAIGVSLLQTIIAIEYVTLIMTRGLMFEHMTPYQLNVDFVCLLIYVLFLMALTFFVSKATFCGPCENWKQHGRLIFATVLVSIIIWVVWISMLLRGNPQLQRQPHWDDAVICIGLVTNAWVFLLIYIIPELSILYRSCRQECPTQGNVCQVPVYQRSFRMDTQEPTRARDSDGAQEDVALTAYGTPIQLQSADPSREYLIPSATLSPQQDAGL


Experiments:
[1] = molecular target: T3, Biotinylated Human IL-10 Protein (human, UniProt P22301 19-178, biotinylated); assay: phage ELISA, coated antigen, detection anti-M13 then HRP anti-mouse IgG
T3 construct: also called IL10-Bio

[2] = molecular target: T4, Human GPRC5D Protein-VLP (human, UniProt Q9NZD1 1-345); assay: as above
T4 construct: Bought reagent; also called GPRC5D-VLP; target antigen

[3] = molecular target: T1, Biotinylated Recombinant human BAFFR …; assay: as above
[4] = molecular target: T5, Streptavidin (UniProt P22629 37-163, limits assumed); assay: as above
T5 construct: also called SA

[5] = molecular target: T3, Biotinylated Human IL-10 Protein; assay: ELISA, coated antigen, purified IgG-form antibody, detection HRP anti-human IgG
[6] = molecular target: T4, Human GPRC5D Protein-VLP; assay: as above
[7] = molecular target: T1, Biotinylated Recombinant human BAFFR …; assay: as above
[8] = molecular target: T5, Streptavidin; assay: as above
[9] = molecular target: T2, murine-derived GPRC5D overexpressed on …; assay: FACS titration on CHOS-mouse-GPRC5D cells (lower graph)
[10] = molecular target: T6, human GPRC5D expressed on the cell surface (CHO-K1-GPRC5D cells; MM1S, U266, 8226, H929 cells) (human, UniProt Q9NZD1 1-345); assay: FACS titration (300 nM to 0.00384 nM) on CHO-K1-GPRC5D cells
T6 construct: whole, on cells; The cell line used is named under assay or readout in each row; also called GPRC5D-positive cells

[11] = molecular target: T7, monkey-derived GPRC5D overexpressed on CHOS cells (CHOS-macaqueGPRC5D) (macaque (monkey-derived)); assay: FACS titration on CHOS-macaque-GPRC5D cells (upper graph)
T7 construct: whole, on cells; also called CHOS-macaqaueGPRC5D; GPRC5D monkey-derived positive cell line

T3 sequence (P22301 19-178 limits assumed): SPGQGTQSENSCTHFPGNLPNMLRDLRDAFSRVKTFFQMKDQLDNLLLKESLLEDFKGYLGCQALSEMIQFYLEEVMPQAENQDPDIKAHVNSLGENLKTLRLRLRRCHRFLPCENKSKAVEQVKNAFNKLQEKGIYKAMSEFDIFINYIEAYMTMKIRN
T5 sequence (P22629 37-163 limits assumed): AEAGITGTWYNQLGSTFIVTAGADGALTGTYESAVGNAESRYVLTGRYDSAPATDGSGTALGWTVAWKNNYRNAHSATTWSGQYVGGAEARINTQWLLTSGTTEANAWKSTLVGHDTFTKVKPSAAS
T4 sequence (Q9NZD1 whole entry): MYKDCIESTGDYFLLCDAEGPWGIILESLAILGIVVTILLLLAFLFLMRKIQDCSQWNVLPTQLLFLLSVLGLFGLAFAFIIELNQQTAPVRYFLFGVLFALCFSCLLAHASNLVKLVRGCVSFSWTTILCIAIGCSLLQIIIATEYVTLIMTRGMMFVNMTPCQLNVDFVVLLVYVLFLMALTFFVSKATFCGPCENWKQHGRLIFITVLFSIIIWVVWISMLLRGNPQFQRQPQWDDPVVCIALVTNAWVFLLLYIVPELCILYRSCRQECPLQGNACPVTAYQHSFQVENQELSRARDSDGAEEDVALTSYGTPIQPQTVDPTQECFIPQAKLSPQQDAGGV
T6 sequence (Q9NZD1 whole entry): as above

Binder	binding result [1]	binding result [2]	binding result [3]	binding result [4]	binding result [5]	binding result [6]	binding result [7]	binding result [8]	binding result [9]	EC50 [10]	TOP (MFI) [10]	EC50 (read off the curve) [11]	EC50 (read off the curve) [9]
clone #39, single domain antibody displayed as monoclonal phage (phage level) (VHH, Tested as a monoclonal phage antibody (M13 display, detected with anti-M13); also called clone number 39) VHH: EVQLLESGGGLVQPGGSLRLSCAASGFIFSSYGMGWVRQAPGKGLEWVSSISSSGDYTYYADSVKGRFTISRDNSKNTLYLQMNSLRAEDTAVYYCARMSFRRYDHWGQGTLVTVSS	no binding	binds	no binding	no binding									
Clone 39, antibody in the IgG form (protein level) (antibody, V domains shown, Expressed from an IgG expression plasmid in CHOS cells, purified by Protein A 'into the IgG form', detected with anti-human IgG Fc gamma; also called anti-GPRC5D IgG) VH: EVQLLESGGGLVQPGGSLRLSCAASGFIFSSYGMGWVRQAPGKGLEWVSSISSSGDYTYYADSVKGRFTISRDNSKNTLYLQMNSLRAEDTAVYYCARMSFRRYDHWGQGTLVTVSS					no binding	binds	no binding	no binding	binds	6.93 nM	2800 MFI		
clone #18, single domain antibody displayed as monoclonal phage (phage level) (VHH, Tested as a monoclonal phage antibody (M13 display, detected with anti-M13); also called clone number 18) VHH: QVQLQQWGAGLLKPSETLSLTCAVYGGSFSGYYWSWIRQPPGKGLEWIGEINHSGSTNYNPSLKSRVTISVDTSKNQFSLKLSSVTAADTAVYYCARARRYGGRTRFDPWGQGTLVTVSS	no binding	binds	no binding	no binding									
Clone 18, antibody in the IgG form (protein level) (antibody, V domains shown, Expressed from an IgG expression plasmid in CHOS cells, purified by Protein A 'into the IgG form', detected with anti-human IgG Fc gamma; also called anti-GPRC5D IgG) VH: QVQLQQWGAGLLKPSETLSLTCAVYGGSFSGYYWSWIRQPPGKGLEWIGEINHSGSTNYNPSLKSRVTISVDTSKNQFSLKLSSVTAADTAVYYCARARRYGGRTRFDPWGQGTLVTVSS					no binding	binds	no binding	no binding		1.58 nM	3460 MFI	~10 nM	~2 nM
